Tests used:
[1] = target: extracellular domain of EpCAM (EpCAM ECD) (UniProt P16422); assay: fluorescence increase of the DARPin-SiP conjugate on adding the antigen (plate reader); conjugate 500 nM (not pretreated with DTT), EpCAM ECD 1 uM; fold activation = fluorescence at 31 min divided by that just before EpCAM ECD
[2] = target: extracellular domain of EpCAM (EpCAM ECD) (UniProt P16422); assay: other fluorescence titration; Kd of the probe for EpCAM ECD calculated from the increase of SiP fluorescence (Figure S10)
[3] = target: extracellular domain of EpCAM (EpCAM ECD) (UniProt P16422); assay: fluorescence increase of the DARPin-SiP conjugate on adding the antigen (plate reader); probe pretreated with DTT; probe 500 nM, EpCAM ECD 1 uM

Sequence of UniProt P16422 (P16422 24-265): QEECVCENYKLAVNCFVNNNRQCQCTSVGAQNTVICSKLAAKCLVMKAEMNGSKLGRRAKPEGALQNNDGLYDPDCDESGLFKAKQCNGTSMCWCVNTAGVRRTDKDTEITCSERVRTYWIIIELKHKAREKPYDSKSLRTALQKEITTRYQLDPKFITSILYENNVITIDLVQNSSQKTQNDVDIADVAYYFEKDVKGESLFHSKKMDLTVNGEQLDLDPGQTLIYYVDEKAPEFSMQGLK

fold increase of SiP fluorescence on adding EpCAM ECD [1]: 7 fold
Kd [2]: 238 nM
fold activation of SiP fluorescence on adding EpCAM ECD [3]: > 12 fold
Substance: Ec1 K152C-5-Gly SiP conjugate (designed binder)

From publication PMC12396215
